This note sets out measurements from article doi:10.1101/2024.10.03.616038 (bioRxiv, 2024).

For the assay, the target named is 6P stabilised SARS-CoV-2 spike protein (SARS-CoV-2, original (Wuhan) strain, UniProt P0DTC2, stabilised). Description: cryo-EM structure. As to conditions: both partners purified.

B1: REGN10987 Fab (Fab, V domains shown)
VH: QVQLVESGGGVVQPGRSLRLSCAASGFTFSNYAMYWVRQAPGKGLEWVAVISYDGSNKYYADSVKGRFTISRDNSKNTLYLQMNSLRTEDTAVYYCASGSDYGDYLLVYWGQGTLVTVSS
VL: QSALTQPASVSGSPGQSITISCTGTSSDVGGYNYVSWYQQHPGKAPKLMIYDVSKRPSGVSNRFSGSKSGNTASLTISGLQSEDEADYYCNSLTSISTWVFGGGTKLTVL
B1: the binding result is “binds”.
